IntAct's records for PubMed 29039417

B1: BBSome complex member BBS2 (Homo sapiens), Q9BXC9 (parent)
chain: MLLPVFTLKLRHKISPRMVAIGRYDGTHPCLAAATQTGKVFIHNPHTRNQHVSASRVFQSPLESDVSLLSINQAVSCLTAGVLNPELGYDALLVGTQTNLLAYDVYNNSDLFYREVADGANAIVLGTLGDISSPLAIIGGNCALQGFNHEGSDLFWTVTGDNVNSLALCDFDGDGKKELLVGSEDFDIRVFKEDEIVAEMTETEIVTSLCPMYGSRFGYALSNGTVGVYDKTSRYWRIKSKNHAMSIHAFDLNSDGVNELITGWSNGKVDARSDRTGEVIFKDNFSSAIAGVVEGDYRMDGHIQLICCSVDGEIRGYLPGTAEMRGNLMDTSAEQDLIRELSQKKQNLLLELRNYEENAKAELASPLNEADGHRGIIPANTRLHTTLSVSLGNETQTAHTELRISTSNDTIIRAVLIFAEGIFTGESHVVHPSIHNLSSSICIPIVPPKDVPVDLHLKAFVGYRSSTQFHVFESTRQLPRFSMYALTSLDPASEPISYVNFTIAERAQRVVVWLGQNFLLPEDTHIQNAPFQVCFTSLRNGGHLHIKIKLSGEITINTDDIDLAGDIIQSMASFFAIEDLQVEADFPVYFEELRKVLVKVDEYHSVHQKLSADMADHSNLIRSLLVGAEDARLMRDMKTMKSRYMELYDLNRDLLNGYKIRCNNHTELLGNLKAVNQAIQRAGRLRVGKPKNQVITACRDAIRSNNINTLFKIMRVGTASS
partner: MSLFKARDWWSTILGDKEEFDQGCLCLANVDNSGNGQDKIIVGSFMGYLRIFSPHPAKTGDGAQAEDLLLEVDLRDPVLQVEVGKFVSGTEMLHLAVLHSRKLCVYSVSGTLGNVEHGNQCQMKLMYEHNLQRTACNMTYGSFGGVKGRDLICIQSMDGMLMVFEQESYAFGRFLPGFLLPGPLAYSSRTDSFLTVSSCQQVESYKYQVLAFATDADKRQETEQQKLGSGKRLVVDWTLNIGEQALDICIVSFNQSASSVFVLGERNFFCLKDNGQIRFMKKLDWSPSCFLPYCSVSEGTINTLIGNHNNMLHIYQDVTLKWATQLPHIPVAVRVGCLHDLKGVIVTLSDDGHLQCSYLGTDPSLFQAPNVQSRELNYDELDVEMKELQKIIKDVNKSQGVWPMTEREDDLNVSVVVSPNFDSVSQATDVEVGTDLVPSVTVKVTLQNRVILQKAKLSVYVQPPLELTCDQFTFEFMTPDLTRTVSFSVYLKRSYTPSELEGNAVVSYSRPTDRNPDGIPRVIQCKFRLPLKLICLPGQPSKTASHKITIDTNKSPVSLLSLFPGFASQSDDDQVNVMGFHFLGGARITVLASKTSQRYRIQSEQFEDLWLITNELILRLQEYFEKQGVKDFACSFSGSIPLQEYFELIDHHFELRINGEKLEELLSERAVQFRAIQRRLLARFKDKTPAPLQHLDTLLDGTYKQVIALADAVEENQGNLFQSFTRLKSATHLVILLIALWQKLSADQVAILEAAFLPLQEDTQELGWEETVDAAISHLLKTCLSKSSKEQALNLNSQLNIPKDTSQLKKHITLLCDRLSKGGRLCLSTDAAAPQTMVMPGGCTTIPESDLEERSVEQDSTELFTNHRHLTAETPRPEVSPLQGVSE

Variants of: B1
Details: with pthb1_human BBS9, Q3SYG4
In the case of L478A, the “effect of a mutation on the interaction” value is reported as “disrupting interaction strength”.
With L478E the “effect of a mutation on the interaction” value was “disrupting interaction strength”.
For L478K, the “effect of a mutation on the interaction” value was “disrupting interaction strength”.
With L478P the “effect of a mutation on the interaction” value was “disrupting interaction strength”.
P479A was tested, and the “effect of a mutation on the interaction” value was “with no effect”.
For P479E, the “effect of a mutation on the interaction” value was “disrupting interaction strength”.
P479K was tested, and the “effect of a mutation on the interaction” value was “with no effect”.
With P479L the “effect of a mutation on the interaction” value was “disrupting interaction strength”.
For R480A, the “effect of a mutation on the interaction” value was “with no effect”.
With R480E the “effect of a mutation on the interaction” value was “with no effect”.
For R480K, the “effect of a mutation on the interaction” value was “with no effect”.
For F481A, the “effect of a mutation on the interaction” value was “disrupting interaction strength”.
With F481E the “effect of a mutation on the interaction” value was “disrupting interaction strength”.
In the case of F481K, the “effect of a mutation on the interaction” value is reported as “disrupting interaction strength”.
For S482A, the “effect of a mutation on the interaction” value was “with no effect”.
In the case of S482E, the “effect of a mutation on the interaction” value is reported as “disrupting interaction strength”.
S482K was tested, and the “effect of a mutation on the interaction” value was “disrupting interaction strength”.
S482P was tested, and the “effect of a mutation on the interaction” value was “disrupting interaction strength”.
In the case of M483A, the “effect of a mutation on the interaction” value is reported as “with no effect”.
In the case of M483E, the “effect of a mutation on the interaction” value is reported as “disrupting interaction strength”.
With M483I the “effect of a mutation on the interaction” value was “disrupting interaction strength”.
In the case of M483K, the “effect of a mutation on the interaction” value is reported as “disrupting interaction strength”.
Y484A was tested, and the “effect of a mutation on the interaction” value was “disrupting interaction strength”.
For Y484E, the “effect of a mutation on the interaction” value was “disrupting interaction strength”.
For Y484K, the “effect of a mutation on the interaction” value was “disrupting interaction strength”.
A485E was tested, and the “effect of a mutation on the interaction” value was “with no effect”.
A485K was tested, and the “effect of a mutation on the interaction” value was “with no effect”.
In the case of A485S, the “effect of a mutation on the interaction” value is reported as “disrupting interaction strength”.
For L486A, the “effect of a mutation on the interaction” value was “with no effect”.
L486E was tested, and the “effect of a mutation on the interaction” value was “with no effect”.
L486K was tested, and the “effect of a mutation on the interaction” value was “with no effect”.
For T487A, the “effect of a mutation on the interaction” value was “with no effect”.
With T487E the “effect of a mutation on the interaction” value was “with no effect”.
T487K was tested, and the “effect of a mutation on the interaction” value was “with no effect”.
With T487M the “effect of a mutation on the interaction” value was “disrupting interaction strength”.
S488A was tested, and the “effect of a mutation on the interaction” value was “with no effect”.
S488E was tested, and the “effect of a mutation on the interaction” value was “with no effect”.
In the case of S488K, the “effect of a mutation on the interaction” value is reported as “with no effect”.
In the case of S488R, the “effect of a mutation on the interaction” value is reported as “disrupting interaction strength”.
L489A was tested, and the “effect of a mutation on the interaction” value was “with no effect”.
In the case of L489E, the “effect of a mutation on the interaction” value is reported as “with no effect”.
For L489K, the “effect of a mutation on the interaction” value was “with no effect”.
With D490A the “effect of a mutation on the interaction” value was “with no effect”.
D490E was tested, and the “effect of a mutation on the interaction” value was “with no effect”.
For D490K, the “effect of a mutation on the interaction” value was “with no effect”.
For P491A, the “effect of a mutation on the interaction” value was “with no effect”.
With P491E the “effect of a mutation on the interaction” value was “with no effect”.
For P491K, the “effect of a mutation on the interaction” value was “with no effect”.
In the case of A492E, the “effect of a mutation on the interaction” value is reported as “with no effect”.
For A492K, the “effect of a mutation on the interaction” value was “with no effect”.
With S493A the “effect of a mutation on the interaction” value was “with no effect”.
With S493E the “effect of a mutation on the interaction” value was “with no effect”.
In the case of S493K, the “effect of a mutation on the interaction” value is reported as “with no effect”.
E494A was tested, and the “effect of a mutation on the interaction” value was “with no effect”.
E494K was tested, and the “effect of a mutation on the interaction” value was “with no effect”.
P495A was tested, and the “effect of a mutation on the interaction” value was “with no effect”.
In the case of P495E, the “effect of a mutation on the interaction” value is reported as “with no effect”.
With P495K the “effect of a mutation on the interaction” value was “with no effect”.
With I496A the “effect of a mutation on the interaction” value was “with no effect”.
I496E was tested, and the “effect of a mutation on the interaction” value was “with no effect”.
In the case of I496K, the “effect of a mutation on the interaction” value is reported as “with no effect”.
For S497A, the “effect of a mutation on the interaction” value was “disrupting interaction strength”.
For S497E, the “effect of a mutation on the interaction” value was “with no effect”.
S497K was tested, and the “effect of a mutation on the interaction” value was “with no effect”.
With Y498A the “effect of a mutation on the interaction” value was “with no effect”.
Y498E was tested, and the “effect of a mutation on the interaction” value was “with no effect”.
With Y498H the “effect of a mutation on the interaction” value was “disrupting interaction strength”.
For Y498K, the “effect of a mutation on the interaction” value was “with no effect”.
With V499A the “effect of a mutation on the interaction” value was “with no effect”.
With V499E the “effect of a mutation on the interaction” value was “with no effect”.
V499K was tested, and the “effect of a mutation on the interaction” value was “with no effect”.
With N500A the “effect of a mutation on the interaction” value was “with no effect”.
For N500E, the “effect of a mutation on the interaction” value was “with no effect”.
For N500K, the “effect of a mutation on the interaction” value was “with no effect”.
For F501A, the “effect of a mutation on the interaction” value was “with no effect”.
With F501E the “effect of a mutation on the interaction” value was “disrupting interaction strength”.
F501K was tested, and the “effect of a mutation on the interaction” value was “with no effect”.
For T502A, the “effect of a mutation on the interaction” value was “with no effect”.
With T502E the “effect of a mutation on the interaction” value was “with no effect”.
T502K was tested, and the “effect of a mutation on the interaction” value was “with no effect”.
I503A was tested, and the “effect of a mutation on the interaction” value was “with no effect”.
